Data published in US8114412B2, “T. cruzi-derived neurotrophic agents and methods of use therefor” (priority 1999, dated 2012).

Legend:
[1] = tested on: human bladder carcinoma T-24 cell line; assay: IL-6 secretion by T-24 carcinoma cells (ELISA); assay type: cell-based; settings: 24 hours culture
Procedure: (§1) Primary cultures of human intestinal microvascular endothelial cells (HIMEC) isolated from normal jejunal mucosa/submucosal tissue were prepared as described (Strong et al., Gastroenterology 114: 1244-1256 (1998)). The HIMEC were cultured in fibronectin-coated plasticware in MCDB medium (Sigma) supplemented with 20% FBS, 90 μg/ml heparin and 50 μg/ml endothelial cell growth factor (Sigma). T-24 cells (ATCC Accession No. HTB-4) were cultured in M199 medium supplemented with 10% FBS. PBMC were purified by Ficoll-Paque gradient as described (Current Protocols in Immunology, pp 7.1.1-7.1.2). Vero cells (ATCC Accession No. CCL-81) were grown in RPMI medium with 5% Nu serum and infected with the Silvio X-10/4 of T. cruzi as described previously (Chuenkova et al., J. Exp. Med. 181: 1693-1703, (1995)).
(§2) Endothelial cells and T-24 cells were plated on 24-well plates at a density of 1×10^3 cells/well, while peripheral blood mononuclear cells (PBMC) were plated in the similar wells at 1×10^6/well. Triplicat cultures of cells were incubated test agents for a predetermined amount of time. […] Cytokines and chemokines released in the culture supernatants were measured by ELISA assay following the instructions of the manufacturer (Endogen). The cytokines tested were IL-1β, IL-4, IL-8, IL-10, IL-12, IFN-γ, TNF-α, and the chemokines RANTES and MCP-1. Negative controls were cells incubated in medium containing polymixin B at 10 μg/ml, and positive controls were cells incubated with bacterial LPS at the low ng/ml range (for PBMC or HIMEC) or in the μg/ml range for carcinoma T-24 cells. In some experiments, IL-1β, or TNFα were used as positive control for cytokine release.

Trans-sialidase assay = assay type: biochemical
Procedure: The trans-sialidase assay was performed as described (Scudder et al., J. Biol. Chem. 268:9886-9891 (1993)) with slight modifications. Various amounts of intact enzyme or enzyme fragments were added to 50 mM PBS, Ph 7.2, containing 15% fetal calf serum and […] of [^14C]N-acetyllactosamine (4×10^5 dpm), 50 μg BSA and 0.02% NaN3 in a volume of 60 μl. After incubation for a predetermined amount of time at room temperature, the reaction mixture was diluted to 1.0 ml with distilled water and applied to a column containing 1.0 ml Q-Sepharose equilibrated with water. Sialylated product was eluted with 1 M NaCi and quantified by scintillation counting.
TS enzymatic activity was measured by the sialylation of the acceptor ^14C-labeled N-acetyllactosamine on anion exchange resins (Scudder, P. et. al., J. Biol. Chem. 268:9886-9891 (1993)). Recombinant TSA-1, was expressed on insect sf9 cells and purified from serum-free medium by ion exchange chromatography (monoQ) and preparative SDS-PAGE (Wrightsman, R. A. et al., J. Immunol., 153:3148-3154 (1994).

[2] = tested on: peripheral blood mononuclear cells (PBMC); assay: IL-6 secretion by PBMC (ELISA); assay type: cell-based, human; design: IL-6 secretion by PBMC: dose or concentration left out as unconfirmed; settings: 24 hrs culture
Procedure: as §1, §2
TR peptides (Table 2) were synthesized at the Tufts Synthesis Facility (Boston, Mass.). Each peptide was purified by HPLC, and the number of amino acids and molecular weight of each peptide verified by mass spectrometry. Peptides were dissolved in growth medium (10% FCS in RPMI) and added at various concentrations to 1×10^6 PBMC/well in 24-well plates. After 24 hrs, IL-6 was assayed by ELISA in the conditioned supernatants.

[3] = Martin et al. 1996; cited from earlier work
Bcl-2 mRNA in PC12 cells = assay: RT-PCR of Bcl-2 gene transcripts in PC12 cells; assay type: cell-based, rat; settings: TS 2.5 ng/ml, CNTF 50 ng/ml, alone or combined, 17 hours
Procedure: Total RNA was extracted from PC12 cells by the acid guanidinum isothiocyanate method (Chomchinski, P., et al., Biotechniques 15: 532-535 (1993)) using TRI-reagent (Molecular Research Center, Inc.). cDNA synthesis was performed according to the instruction of the manufacturer (Gibco-BRL). Reverse transcription reactions were carried out for 50 minutes at 42° C. and were heated to 70° C. for 15 minutes to terminate the reaction using a MiniCycler (MJ Research). Samples were cooled to 4° C. and stored at −20° C. until use.
PCR reactions were performed in 50 μl containing 1.5 μl of template DNA (corresponding to cDNA synthesized from 100 ng of total RNA), 1×PCR buffer, 100 μM of deoxynucleotides, 2.5 mM MgCl2, 10 mM DTT, 10 pM of Bcl-2 primers, and 2 U of Taq DNA polymerase (Gibco-BRL). The synthetic DNA primers for the rat Bcl-2 were: 5′-[…]-3′ (SEQ ID NO:8) and 5′-[…]-3′(SEQ ID NO:9) to give a PCR product of 566 bp. The sequences for synthetic GAPDH DNA primers (Wong, H., et al., Anal. Biochem. 223: 251-258 (1994)) were: 5′-[…]-3′ (SEQ ID NO:10) and 5′-[…]-3′ (SEQ ID NO:11) giving a PCR produce of 306 base pairs. Amplifications were carried out in MiniCycler (MJ Research) using following conditions: 98° C. for 5 minutes (initial heat denaturation), 3 cycles of 94° C. for 1 minute, 63° C. for 1 minute, 72° C. for 1.5 minutes; 3 cycles of 94° C. for 1 minutes, 60° C. for 1 minute, 72° C. for 1.5 minutes, followed by 72° C. for 10 minutes. Primers for GAPDH (10 pM) were added at cycle 7 by the “primer-dropping” method. Aliquots of PCR reaction products were separated by electrophoresis in 2% agarose gels (Ultrapure, Gibco-BRL), containing 0.2 μg/ml ethidium bromide. Gels were analyzed by computerized densitometric scanning using Gel doc 1000 (Bio Rad) and Molecular Analyst Software, version 2.1.

PC12 cells [4] = assay: Trophic factor withdrawal-induced apoptosis of PC12 cells (DAPI/TUNEL); assay type: cell-based, rat; settings: serum-free RPMI-1640/0.2% BSA, 17 hours, DAPI or TUNEL
Text: PC12 cells were obtained from ATCC (Manassas, Va. (Accession No. CRL-1721)) and cultured on collagen-coated dishes in RPMI 1640 supplemented with 10% horse serum and 5% fetal bovine serum (Greene, L. A. and Tishler, A. S., Proc. Natl. Acad. Sci. USA, 73: 2424-2428 (1976)). For differentiation and survival experiments, cells were washed three times in serum-free RPMI/0.2% BSA, plated in the same medium in collagen-coated plastic dishes at 2×10^5/ml, without and with growth factors, TS, recombinant proteins, synthetic peptides, for the time and concentrations indicated in the Figures.
Cell staining with 4,6-diamino-2-phenylindole (DAPI). Cells were fixed with 4% formaldehyde in PBS for 5 minutes, washed with PBS, stained with 10 μg/ml DAPI (Sigma) for 2 minutes, washed with PBS, and visualized under UV light using a fluorescent microscope. About 300-400 cells were examined under the microscope to determine the percentage of apoptotic cells.
Cell DNA nick end labeling (TUNEL) (Gavrieli, Y., et al., J. Cell. Biol. 119: 493-501 (1992)) assay was performed using a kit purchased from Boehringer Mannheim as described by the manufacturer.
(§3) Protection against apoptosis of PC12 cells in serum-free medium containing a test agent (agent N)(e.g., protection induced by TS, TS fragments, NGF or other growth factors), was calculated by the formula: 100%-[(apoptosis(%) of cells kept in RPMI containing test agent N÷apoptosis (%) of cells kept in RPMI)×100%]. Testing the effect of wortmannin (Sigma) and LY294002 (Sigma) in inhibiting the neuroprotection of TS was performed following the protocol described by others (Yao and Cooper, Science, 267:2003-2006 (1995); D'Mello et al., J. Neurosci 17:1548-1560 (1997)). In brief, PC12 cells were switched from growth medium to RPMI without and with TS or various other growth factors. After 24 hr, wortmannin and LY294002 were added to the cultures. After another 24 hrs, cells were examined for apoptosis by the DAPI assay, as above.

PC12 cells [5] = assay: Reversal of TS-induced neuroprotection by PI-3 kinase inhibitors in PC12 cells; assay type: cell-based, rat; settings: RPMI+CNTF 50 ng/ml; similar to RPMI alone
Procedure: as §3

B1: TS-154: recombinant catalytically active trans-sialidase construct from clone 154 with 5 tandem repeat units (protein, listed as Trypanosoma cruzi)
chain: KKKQVFSKIFYSEDEGKTWKFGEGRSDFGCSEPVALEWEGKLIINTRVDYRRRLVYESSDMGNSWVEAVGTLSRVWGPSPKSNQPGSQSSFTAVTIEGMRVMLFTHPLNFKGRWLRDRLNLWLTDNQRIYNVGQVSIGDENSAYSSVLYKDDKLYCLHEINSNEVYSLVFARLVGELRIIKSVLQSWKNWDSHLSSICTP
For B1, the “IL-6 secretion by T-24 cells” value [1] was “as powerful as enzymatically-inactive TS-H32 in stimulating IL-6 secretion”, the trans-sialidase enzymatic activity (Trans-sialidase assay) was “enzymatically-active” and the “IL-6 secretion by PBMC” value [2] was “as powerful as enzymatically-inactive TS-H32 in stimulating IL-6 secretion”.

B2: CNTF: human ciliary neurotrophic factor; recombinant human and rat CNTF (protein, UniProt P26441 1-200, looked up)
Ciliary neurotrophic factor: MAFTEHSPLTPHRRDLCSRSIWLARKIRSDLTALTESYVKHQGLNKNINLDSADGMPVASTDQWSELTEAERLQENLQAYRTFHVLLARLLEDQQVHFTPTEGDFHQAIHTLLLQVAAFAYQIEELMILLEYKIPRNEADGMPINVGDGGLFEKKLWGLKVLQELSQWTVRSIHDLRFISSHQTGIPARGSHYIANNKKM
In the case of B2, the “undesirable side effects of administration” value [3] is listed as “muscle atrophy, cachexia and anorexia”, the “bcl-2 gene expression in PC12 cells” value (Bcl-2 mRNA in PC12 cells) is listed as “did not induce bcl-2 gene expression individually” and the “protection of PC12 cells from apoptosis induced by trophic factor withdrawal” value (PC12 cells [4]) is listed as “little, if any, protection”. The “viability of PC12 cells” value (PC12 cells [5]) was roughly 33%.
